{"source": "the supplement of paper PMC9112550", "about": "“Optimization of the antimicrobial peptide Bac7 by deep mutational scanning” (BMC Biology, 2022);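 further: peptides expressed intracellularly from a pBAD plasmid library in pooled LB shake-flask culture, induced with 0.3% L-arabinose, DNA abundance read by NGS, three biological replicates, DESeq2 with apeglm shrinkage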"}
{"system": "Escherichia coli TOP10", "test": "shrunken log2 fold change of peptide-encoding DNA abundance (4.5 h post-induction vs induction); higher = less antimicrobial activity (less host growth inhibition)", "conditions": "time post-induction: 4.5 h; library: site-saturation at positions 5, 18, 19, 20"}
{"sequence": "RRIRRRPPRLPRPRPRPEAVPRP", "shrunken log2 fold change": 1.53}
{"sequence": "RRIRNRPPRLPRPRPRPICAPRP", "shrunken log2 fold change": 0.0914}
{"sequence": "RRIRERPPRLPRPRPRPALPPRP", "shrunken log2 fold change": 0.439}
{"sequence": "RRIRRRPPRLPRPRPRPSPWPRP", "shrunken log2 fold change": 0.335}
{"sequence": "RRIRSRPPRLPRPRPRPEPVPRP", "shrunken log2 fold change": 1.44}
{"sequence": "RRIRIRPPRLPRPRPRPFLCPRP", "shrunken log2 fold change": -0.628}
{"sequence": "RRIRLRPPRLPRPRPRPHWLPRP", "shrunken log2 fold change": -0.0104}
{"sequence": "RRIRCRPPRLPRPRPRPWWQPRP", "shrunken log2 fold change": 0.0101}
{"sequence": "RRIRKRPPRLPRPRPRPKKNPRP", "shrunken log2 fold change": 0.555}
{"sequence": "RRIRVRPPRLPRPRPRPNEWPRP", "shrunken log2 fold change": 0.0106}
{"sequence": "RRIRARPPRLPRPRPRPTAWPRP", "shrunken log2 fold change": 0.863}
{"sequence": "RRIRYRPPRLPRPRPRPAWEPRP", "shrunken log2 fold change": 1.86}
{"sequence": "RRIRPRPPRLPRPRPRPMIGPRP", "shrunken log2 fold change": 0.00964}
{"sequence": "RRIRSRPPRLPRPRPRPKSEPRP", "shrunken log2 fold change": 0.0504}
{"sequence": "RRIRSRPPRLPRPRPRPCMRPRP", "shrunken log2 fold change": 0.0526}
{"sequence": "RRIRRRPPRLPRPRPRPTYPPRP", "shrunken log2 fold change": 0.0623}
{"sequence": "RRIRSRPPRLPRPRPRPFLWPRP", "shrunken log2 fold change": -0.0904}
{"sequence": "RRIRGRPPRLPRPRPRPFDYPRP", "shrunken log2 fold change": -0.145}
{"sequence": "RRIRKRPPRLPRPRPRPNVYPRP", "shrunken log2 fold change": -0.0771}
{"sequence": "RRIRSRPPRLPRPRPRPRIRPRP", "shrunken log2 fold change": -0.0466}
{"sequence": "RRIRWRPPRLPRPRPRPFIQPRP", "shrunken log2 fold change": -0.437}
{"sequence": "RRIRKRPPRLPRPRPRPSHAPRP", "shrunken log2 fold change": 0.155}
{"sequence": "RRIRSRPPRLPRPRPRPGHSPRP", "shrunken log2 fold change": 0.0297}
{"sequence": "RRIRQRPPRLPRPRPRPAGDPRP", "shrunken log2 fold change": 0.127}
{"sequence": "RRIRPRPPRLPRPRPRPQGTPRP", "shrunken log2 fold change": 0.306}
{"sequence": "RRIRPRPPRLPRPRPRPINCPRP", "shrunken log2 fold change": -0.126}
{"sequence": "RRIRGRPPRLPRPRPRPSHLPRP", "shrunken log2 fold change": -0.158}
{"sequence": "RRIRYRPPRLPRPRPRPTAGPRP", "shrunken log2 fold change": 0.111}
{"sequence": "RRIRVRPPRLPRPRPRPKFIPRP", "shrunken log2 fold change": -0.286}
{"sequence": "RRIRTRPPRLPRPRPRPQESPRP", "shrunken log2 fold change": -0.0142}
{"sequence": "RRIRCRPPRLPRPRPRPRDQPRP", "shrunken log2 fold change": 0.278}
{"sequence": "RRIRIRPPRLPRPRPRPNQLPRP", "shrunken log2 fold change": -0.136}
{"sequence": "RRIRARPPRLPRPRPRPHLFPRP", "shrunken log2 fold change": 0.117}
{"sequence": "RRIRFRPPRLPRPRPRPNSGPRP", "shrunken log2 fold change": -0.166}
{"sequence": "RRIRWRPPRLPRPRPRPIGAPRP", "shrunken log2 fold change": 0.0619}
{"sequence": "RRIRARPPRLPRPRPRPRMPPRP", "shrunken log2 fold change": 0.251}
{"sequence": "RRIRVRPPRLPRPRPRPDMIPRP", "shrunken log2 fold change": -0.0118}
{"sequence": "RRIRLRPPRLPRPRPRPSMLPRP", "shrunken log2 fold change": -0.965}
{"sequence": "RRIRQRPPRLPRPRPRPSTAPRP", "shrunken log2 fold change": 0.0789}
{"sequence": "RRIRDRPPRLPRPRPRPWRIPRP", "shrunken log2 fold change": -0.139}
{"sequence": "RRIRGRPPRLPRPRPRPVQNPRP", "shrunken log2 fold change": 0.588}
{"sequence": "RRIRFRPPRLPRPRPRPIKAPRP", "shrunken log2 fold change": -0.128}
{"sequence": "RRIRVRPPRLPRPRPRPLVHPRP", "shrunken log2 fold change": -0.145}
{"sequence": "RRIRERPPRLPRPRPRPNLKPRP", "shrunken log2 fold change": -0.56}
{"sequence": "RRIRRRPPRLPRPRPRPQQPPRP", "shrunken log2 fold change": 0.325}
{"sequence": "RRIRGRPPRLPRPRPRPCCMPRP", "shrunken log2 fold change": 0.474}
{"sequence": "RRIRYRPPRLPRPRPRPTWRPRP", "shrunken log2 fold change": 0.104}
{"sequence": "RRIRMRPPRLPRPRPRPKACPRP", "shrunken log2 fold change": 0.558}
{"sequence": "RRIRGRPPRLPRPRPRPSQQPRP", "shrunken log2 fold change": -0.147}
{"sequence": "RRIRPRPPRLPRPRPRPYWAPRP", "shrunken log2 fold change": -0.365}
{"sequence": "RRIRTRPPRLPRPRPRPLWDPRP", "shrunken log2 fold change": -0.0109}
{"sequence": "RRIRWRPPRLPRPRPRPWVDPRP", "shrunken log2 fold change": -0.119}
{"sequence": "RRIRHRPPRLPRPRPRPYQEPRP", "shrunken log2 fold change": -0.138}
{"sequence": "RRIRLRPPRLPRPRPRPGWAPRP", "shrunken log2 fold change": 0.691}
{"sequence": "RRIRVRPPRLPRPRPRPRQNPRP", "shrunken log2 fold change": 0.00342}
{"sequence": "RRIRQRPPRLPRPRPRPWYFPRP", "shrunken log2 fold change": -0.289}
{"sequence": "RRIRERPPRLPRPRPRPPGGPRP", "shrunken log2 fold change": 0.56}
{"sequence": "RRIRWRPPRLPRPRPRPMADPRP", "shrunken log2 fold change": 0.0452}
{"sequence": "RRIRFRPPRLPRPRPRPINMPRP", "shrunken log2 fold change": -0.319}
{"sequence": "RRIRMRPPRLPRPRPRPWFHPRP", "shrunken log2 fold change": -0.121}
{"sequence": "RRIRTRPPRLPRPRPRPNNAPRP", "shrunken log2 fold change": -0.303}
{"sequence": "RRIRSRPPRLPRPRPRPCDHPRP", "shrunken log2 fold change": -0.138}
{"sequence": "RRIRMRPPRLPRPRPRPWMMPRP", "shrunken log2 fold change": 0.024}
{"sequence": "RRIRMRPPRLPRPRPRPWPTPRP", "shrunken log2 fold change": 0.675}
{"sequence": "RRIRKRPPRLPRPRPRPSTIPRP", "shrunken log2 fold change": -0.0803}
{"sequence": "RRIRSRPPRLPRPRPRPKQMPRP", "shrunken log2 fold change": -0.0354}
{"sequence": "RRIRQRPPRLPRPRPRPIRDPRP", "shrunken log2 fold change": -0.161}
{"sequence": "RRIRVRPPRLPRPRPRPWKMPRP", "shrunken log2 fold change": -0.148}
{"sequence": "RRIRDRPPRLPRPRPRPDKVPRP", "shrunken log2 fold change": -0.159}
{"sequence": "RRIRFRPPRLPRPRPRPGETPRP", "shrunken log2 fold change": 0.138}
{"sequence": "RRIRRRPPRLPRPRPRPGRMPRP", "shrunken log2 fold change": 0.41}
{"sequence": "RRIRSRPPRLPRPRPRPKVEPRP", "shrunken log2 fold change": 0.213}
{"sequence": "RRIRTRPPRLPRPRPRPGIAPRP", "shrunken log2 fold change": -0.0278}
{"sequence": "RRIRIRPPRLPRPRPRPIKHPRP", "shrunken log2 fold change": -0.571}
{"sequence": "RRIRKRPPRLPRPRPRPHQTPRP", "shrunken log2 fold change": 0.202}
